Measured values taken from IntAct's records for PubMed 21390248.

B1: 14-3-3 protein gamma (Mus musculus), P61982 (parent)
chain: MVDREQLVQKARLAEQAERYDDMAAAMKNVTELNEPLSNEERNLLSVAYKNVVGARRSSWRVISSIEQKTSADGNEKKIEMVRAYREKIEKELEAVCQDVLSLLDNYLIKNCSETQYESKVFYLKMKGDYYRYLAEVATGEKRATVVESSEKAYSEAHEISKEHMQPTHPIRLGLALNYSVFYYEIQNAPEQACHLAKTAFDDAIAELDTLNEDSYKDSTLIMQLLRDNLTLWTSDQQDDDGGEGNN

Variants of: B1
Details: with lrrk2_mouse Lrrk2, Q5S006
Sequence of lrrk2_mouse Lrrk2, Q5S006 (Q5S006 whole entry): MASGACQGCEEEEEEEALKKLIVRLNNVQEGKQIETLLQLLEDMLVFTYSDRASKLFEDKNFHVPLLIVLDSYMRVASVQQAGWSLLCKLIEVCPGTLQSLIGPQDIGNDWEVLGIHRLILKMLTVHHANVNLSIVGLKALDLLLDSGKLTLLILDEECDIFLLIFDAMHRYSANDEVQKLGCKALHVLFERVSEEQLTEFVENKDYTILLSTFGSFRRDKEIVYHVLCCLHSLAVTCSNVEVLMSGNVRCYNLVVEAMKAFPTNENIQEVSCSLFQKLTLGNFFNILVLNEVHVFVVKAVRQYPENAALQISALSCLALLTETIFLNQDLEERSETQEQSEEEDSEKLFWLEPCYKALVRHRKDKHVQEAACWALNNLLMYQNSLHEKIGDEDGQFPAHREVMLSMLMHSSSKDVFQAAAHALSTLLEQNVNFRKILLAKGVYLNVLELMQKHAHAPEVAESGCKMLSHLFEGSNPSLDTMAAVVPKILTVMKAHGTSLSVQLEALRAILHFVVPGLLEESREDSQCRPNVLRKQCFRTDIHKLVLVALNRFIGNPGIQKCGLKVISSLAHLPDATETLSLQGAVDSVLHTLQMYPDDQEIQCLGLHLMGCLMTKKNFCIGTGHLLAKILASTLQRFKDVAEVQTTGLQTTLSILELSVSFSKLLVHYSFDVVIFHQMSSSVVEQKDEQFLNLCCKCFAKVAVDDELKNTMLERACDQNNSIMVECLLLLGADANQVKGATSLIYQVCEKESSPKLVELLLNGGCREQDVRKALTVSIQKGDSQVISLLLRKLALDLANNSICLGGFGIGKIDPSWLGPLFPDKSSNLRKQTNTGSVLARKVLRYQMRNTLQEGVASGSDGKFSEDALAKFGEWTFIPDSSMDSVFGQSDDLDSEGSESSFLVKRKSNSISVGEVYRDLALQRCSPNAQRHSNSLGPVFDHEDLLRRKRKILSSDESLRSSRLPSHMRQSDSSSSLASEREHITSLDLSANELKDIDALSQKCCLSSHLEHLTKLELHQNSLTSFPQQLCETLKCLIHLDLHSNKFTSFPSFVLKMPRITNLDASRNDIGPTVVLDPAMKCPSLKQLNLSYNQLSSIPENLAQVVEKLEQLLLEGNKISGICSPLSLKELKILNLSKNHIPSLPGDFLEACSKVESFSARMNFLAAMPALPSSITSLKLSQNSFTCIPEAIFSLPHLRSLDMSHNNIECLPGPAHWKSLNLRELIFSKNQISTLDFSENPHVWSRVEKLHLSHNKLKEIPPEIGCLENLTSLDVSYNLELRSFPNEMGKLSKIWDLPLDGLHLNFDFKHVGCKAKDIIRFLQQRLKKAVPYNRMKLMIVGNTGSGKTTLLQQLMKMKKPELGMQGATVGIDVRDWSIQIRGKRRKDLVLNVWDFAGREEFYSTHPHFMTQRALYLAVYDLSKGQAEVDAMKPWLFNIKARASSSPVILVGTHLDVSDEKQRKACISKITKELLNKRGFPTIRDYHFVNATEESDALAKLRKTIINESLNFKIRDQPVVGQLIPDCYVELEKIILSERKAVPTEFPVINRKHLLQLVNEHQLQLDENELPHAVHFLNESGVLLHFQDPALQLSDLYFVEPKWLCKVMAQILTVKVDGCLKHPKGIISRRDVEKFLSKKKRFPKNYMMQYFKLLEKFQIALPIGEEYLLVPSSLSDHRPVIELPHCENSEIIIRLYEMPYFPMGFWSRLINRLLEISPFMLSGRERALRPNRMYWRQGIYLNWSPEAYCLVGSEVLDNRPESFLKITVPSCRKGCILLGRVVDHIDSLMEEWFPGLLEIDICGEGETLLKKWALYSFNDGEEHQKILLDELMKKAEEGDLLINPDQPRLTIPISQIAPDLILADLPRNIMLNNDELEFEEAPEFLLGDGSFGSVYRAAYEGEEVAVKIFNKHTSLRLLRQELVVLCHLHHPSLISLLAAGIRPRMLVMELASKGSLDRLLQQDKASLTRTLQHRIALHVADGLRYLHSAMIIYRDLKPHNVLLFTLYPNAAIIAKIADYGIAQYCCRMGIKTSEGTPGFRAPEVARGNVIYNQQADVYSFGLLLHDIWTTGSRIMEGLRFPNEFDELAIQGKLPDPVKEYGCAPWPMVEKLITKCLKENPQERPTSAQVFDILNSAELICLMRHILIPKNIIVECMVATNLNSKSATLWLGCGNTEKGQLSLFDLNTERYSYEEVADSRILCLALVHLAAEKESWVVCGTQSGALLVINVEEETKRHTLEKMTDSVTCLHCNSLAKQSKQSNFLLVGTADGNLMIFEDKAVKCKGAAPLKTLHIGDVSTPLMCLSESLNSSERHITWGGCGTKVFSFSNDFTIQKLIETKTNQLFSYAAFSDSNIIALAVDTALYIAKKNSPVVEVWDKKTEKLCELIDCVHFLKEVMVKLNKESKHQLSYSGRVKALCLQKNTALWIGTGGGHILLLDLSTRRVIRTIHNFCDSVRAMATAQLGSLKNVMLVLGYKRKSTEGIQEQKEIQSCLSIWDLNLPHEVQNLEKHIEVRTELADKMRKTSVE

With K50E as the variant, how does the “effect of a mutation on the interaction” value read?
Its value is “disrupting interaction”.

How did the “effect of a mutation on the interaction” value turn out when V181D was run?
Its value is “disrupting interaction”.
